In FireProtDB (doi:10.1038/srep15545):

Conditions: Escherichia coli (strain K12); pH 9; Thermal; DSC; Glycine 50mM; reversible: yes; whole UniProt chain shown

B1: Divalent-cation tolerance protein CutA wild type, P69488 (protein)
chain: MLDEKSSNTASVVVLCTAPDEATAQDLAAKVLAEKLAACATLIPGATSLYYWEGKLEQEYEVQMILKTTVSHQQALLECLKSHHPYQTPELLVLPVTHGDTDYLSWLNASLR
Tm: 85.6 °C
unfolding enthalpy (calorimetric): 208 kcal/mol
